Here are results for two substances from publication PMC12126530.

Assay [1] addresses Full-length Hsc70-T204A (ATPase deficient mutant) (human) (UniProt P11142). In words: NMR 15N-CPMG relaxation dispersion with exchange-induced shifts; 15N-labelled JDP (DNAJB6 JD-GF 200 μM, DNAJB6 JD 350 μM, DNAJB1 300 μM) with unlabelled Hsc70-T204A at a molar ratio of 0.1, ATP-regenerating system, 20 mM HEPES pH 7.0, 50 mM KCl, 2.5 mM MgCl2, 25 °C, 600, 800 and 950 MHz; fit to a 2-state model; kex = kon app + koff.

The target is the same in assay [2]. The assay can be described thus: NMR 15N-CPMG relaxation dispersion and exchange-induced shifts; 15N-labelled JDP observed, unlabelled Hsc70-T204A added to a molar ratio of 0.1 (DNAJB6 JD-GF 200 uM, DNAJB6 JD 350 uM, DNAJB1 300 uM); 25 °C; 20 mM HEPES pH 7.0, 50 mM KCl, 2.5 mM MgCl2; ATP-regenerating system with 2.5 mM ATP; fit to a two-state binding model.

Chain of Full-length Hsc70-T204A (ATPase deficient mutant) (human) (P11142 whole entry T204A): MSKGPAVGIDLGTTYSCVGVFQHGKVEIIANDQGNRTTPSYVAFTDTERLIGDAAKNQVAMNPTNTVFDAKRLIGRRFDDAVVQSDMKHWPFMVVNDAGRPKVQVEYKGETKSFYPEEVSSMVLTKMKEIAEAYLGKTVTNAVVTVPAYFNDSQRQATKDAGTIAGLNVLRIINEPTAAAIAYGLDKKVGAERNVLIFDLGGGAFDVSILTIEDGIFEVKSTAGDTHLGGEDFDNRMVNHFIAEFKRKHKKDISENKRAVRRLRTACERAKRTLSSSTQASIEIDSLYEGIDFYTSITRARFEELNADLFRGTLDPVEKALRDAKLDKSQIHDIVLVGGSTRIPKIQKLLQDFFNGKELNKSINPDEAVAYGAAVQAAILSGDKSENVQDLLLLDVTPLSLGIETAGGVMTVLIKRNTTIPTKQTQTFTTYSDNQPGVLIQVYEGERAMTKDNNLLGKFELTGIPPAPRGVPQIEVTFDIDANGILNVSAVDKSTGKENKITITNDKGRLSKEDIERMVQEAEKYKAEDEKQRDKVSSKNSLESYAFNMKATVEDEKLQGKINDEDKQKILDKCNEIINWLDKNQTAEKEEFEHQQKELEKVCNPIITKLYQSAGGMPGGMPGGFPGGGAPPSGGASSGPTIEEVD

For the substance “DNAJB6 JD (from UniProt O75190 1-326) (domain or fragment)”, in assay [1], the Kd amounted to 3 µM, the kex amounted to 3000 s⁻¹ and the koff was found to be 2700 s⁻¹.
“DNAJB6 JD-GF (from UniProt O75190 1-326) (domain or fragment)”: the kon in assay [2] was found to be 1.54e+06 M⁻¹ s⁻¹. In assay [1], the Kd was 380 µM, the kex was determined as 600 s⁻¹ and the koff turned out to be 580 s⁻¹.

As a reminder, the koff is the rate constant with which the complex falls apart. The kon is a measure of how fast the partners come together.
